According to IntAct's records for PubMed 29374162:

B1: Interleukin-3 receptor subunit alpha (Homo sapiens), P26951-1 (parent)
chain: MVLLWLTLLLIALPCLLQTKEDPNPPITNLRMKAKAQQLTWDLNRNVTDIECVKDADYSMPAVNNSYCQFGAISLCEVTNYTVRVANPPFSTWILFPENSGKPWAGAENLTCWIHDVDFLSCSWAVGPGAPADVQYDLYLNVANRRQQYECLHYKTDAQGTRIGCRFDDISRLSSGSQSSHILVRGRSAAFGIPCTDKFVVFSQIEILTPPNMTAKCNKTHSFMHWKMRSHFNRKFRYELQIQKRMQPVITEQVRDRTSFQLLNPGTYTVQIRARERVYEFLSAWSTPQRFECDQEEGANTRAWRTSLLIALGTLLALVCVFVICRRYLVMQRLFPRIPHMKDPIGDSFQNDKLVVWEAGKAGLEECLVTEVQVVQKT
partner: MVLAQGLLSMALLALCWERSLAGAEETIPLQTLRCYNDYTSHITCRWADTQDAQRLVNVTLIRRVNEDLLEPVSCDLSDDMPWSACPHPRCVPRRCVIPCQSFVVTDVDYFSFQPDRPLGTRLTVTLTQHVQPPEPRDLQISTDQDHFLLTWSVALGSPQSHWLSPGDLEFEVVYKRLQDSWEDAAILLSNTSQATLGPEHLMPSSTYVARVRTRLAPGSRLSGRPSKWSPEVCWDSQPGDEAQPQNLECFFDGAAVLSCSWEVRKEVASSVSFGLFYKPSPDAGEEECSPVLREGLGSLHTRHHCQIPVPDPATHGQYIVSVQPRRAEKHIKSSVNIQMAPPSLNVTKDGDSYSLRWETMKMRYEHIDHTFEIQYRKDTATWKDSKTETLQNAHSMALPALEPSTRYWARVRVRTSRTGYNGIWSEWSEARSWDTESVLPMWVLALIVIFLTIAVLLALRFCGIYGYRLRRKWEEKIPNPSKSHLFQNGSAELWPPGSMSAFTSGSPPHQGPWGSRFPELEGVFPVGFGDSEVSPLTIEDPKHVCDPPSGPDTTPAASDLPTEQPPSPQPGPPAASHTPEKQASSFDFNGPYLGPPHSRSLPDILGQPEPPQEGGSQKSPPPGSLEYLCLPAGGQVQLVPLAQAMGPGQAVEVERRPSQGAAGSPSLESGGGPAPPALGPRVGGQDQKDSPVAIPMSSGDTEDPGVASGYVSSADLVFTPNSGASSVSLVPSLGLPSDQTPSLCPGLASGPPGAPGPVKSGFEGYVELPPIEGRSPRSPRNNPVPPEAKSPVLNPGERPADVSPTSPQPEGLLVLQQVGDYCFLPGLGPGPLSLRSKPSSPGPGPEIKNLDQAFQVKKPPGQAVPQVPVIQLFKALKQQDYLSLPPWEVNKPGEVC

Variants of: B1
Details: with il3rb_human CSF2RB

Variant | effect of a mutation on the interaction
MVLLWLTLLLIALPCLLQTKEDPNPPITNLRMKAKAQQLTWDLNRNVTDIECVKDADYSMPAVNNSYCQFGAISLCEVTNYTVRVANPPFSTWILFPENSGKPWAGAENLTCWIHDVDFLSCSWAVGPGAPADVQYDLYLNVANRRQQYECLHYKTDAQGTRIGCRFDDISRLSSGSQSSHILVRGRSAAFGIPCTLKFVVFSQIEILTPPNMTAKCNKTHSFMHWKMRSHFNRKFRYELQIQKRMQPVITEQVRDRTSFQLLNPGTYTVQIRARERVYEFLSAWSTPQRFECDQEEGANTRAWRTSLLIALGTLLALVCVFVICRRYLVMQRLFPRIPHMKDPIGDSFQNDKLVVWEAGKAGLEECLVTEVQVVQKT [D197L] | with no effect
MVLLWLTLLLIALPCLLQTKEDPNPPITNLRMKAKAQQLTWDLNRNVTDIECVKDADYSMPAVNNSYCQFGAISLAEVTNYTVRVANPPFSTWILFPENSGKPWAGAENLTCWIHDVDFLSCSWAVGPGAPADVQYDLYLNVANRRQQYECLHYKTDAQGTRIGCRFDDISRLSSGSQSSHILVRGRSAAFGIPATDKFVVFSQIEILTPPNMTAKCNKTHSFMHWKMRSHFNRKFRYELQIQKRMQPVITEQVRDRTSFQLLNPGTYTVQIRARERVYEFLSAWSTPQRFECDQEEGANTRAWRTSLLIALGTLLALVCVFVICRRYLVMQRLFPRIPHMKDPIGDSFQNDKLVVWEAGKAGLEECLVTEVQVVQKT [C76A;C195A] | with no effect
